{"source": "patent US20250228951A1", "about": "“NOVEL-PEPTIDE-BASED ANTICANCER IMMUNOTHERAPEUTIC AGENT” (TWINPIG BIOLAB INC., priority 2022, published 2025)", "key": {"[1]": {"system": "M2 macrophages", "assay": "Flow cytometry of FITC-conjugated melittin on THP-1-derived M0, M1 and M2 macrophages", "type": "cell-based, human", "conditions": "50 nM FITC-conjugated melittin, 1 hour; M2 macrophages compared to the other macrophage types", "method": "To confirm whether the melittin fabricated in Example 1 specifically bound to M2 tumor-associated macrophages (M2 TAMs), a human monocyte cell line THP-1 was differentiated into M0, M1, and M2 macrophages, and treated with FITC-conjugated melittin, and then confirmed by flow cytometry. Specifically, THP-1 cells were treated with 100 nM phorbol 12-myristate 13-acetate (PMA) at 37° C. for 24 hours (M0 macrophages), and the differentiated M0 macrophages were incubated with 100 nM LPS and 20 ng/ml IFN-γ at 37° C. for 72 hours to be differentiated into M1 macrophages (M1), and incubated with 20 ng/ml IL-4 and IL-13 at 37° C. for 72 hours to be differentiated into M2 macrophages (M2). The differentiated cells were treated with 50 nM FITC-conjugated melittin for 1 hour, detected with BD FACS CantoII instruments (BD biosciences, San Jose, CA, USA), and analyzed with FlowJo software (BD biosciences)."}, "[2]": {"system": "M2 macrophages", "assay": "CCK-8 cell viability in M2 macrophages", "type": "cell-based, human", "conditions": "Melittin-dKLA 1 μM, control M2 macrophages", "method": "(§1) To confirm whether Melittin-dKLA bound to ITGB2 to induce apoptosis in M2 macrophages, Melittin-dKLA (1 μM) was treated for 24 hours to M2 macrophages in which ITGB2 expression was suppressed by Crispr/cas9 fabricated in Example 7-1 above, and cell viability was analyzed using a CCK-8 assay. Specifically, Melittin-dKLA (1 μM) reacted with ITGB2 knockdown macrophages fabricated in Example 7-1 above for 1 hour. After the reaction, the medium was replaced and cultured at 37° C. for 24 hours. To determine cell viability, a CCK-8 reagent (Enzo Life Sciences) was added in 1/10 of the medium and reacted at 37° C. for 3 hours. Absorbance was measured at 450 nm using a microplate reader (Molecular Devices).\nTo confirm whether TB511 (TAMpep826-dKLA) induced apoptosis through ITGB2 in M2 macrophages, TB511 reacted with M2 macrophages in which ITGB2 expression was suppressed by Crispr/cas9 fabricated in Example 7-1."}, "[3]": {"system": "M2 macrophages in which ITGB2 expression was suppressed by Crispr/cas9", "assay": "CCK-8 cell viability in M2 macrophages with ITGB2 expression suppressed by Crispr/cas9", "type": "cell-based, human", "conditions": "Melittin-dKLA 1 μM, ITGB2 knocked down M2 macrophages", "method": "As a cell model used to confirm whether apoptosis was induced through ITGB2 in M2 macrophages, a cell model in which the expression of ITGB2 was suppressed in M2 macrophages was fabricated using Crispr/cas9. Specifically, cells differentiated into M2 macrophages were cultured in an Opti-MEM medium. The Crispr/cas9 was mixed with Cas9 protein V2 (Thermo Fisher scientific) and gRNA (Genscript; ITGB2; Table 7) of a CRISPRMAX™ Reagent kit (Thermo Fisher scientific) and a Cas9 Plus™ Reagent (Thermo Fisher scientific), and a CRISPRMAX™ Reagent was diluted in the Opti-MEM medium, mixed together, and reacted for 5 to 10 minutes, and then added to cells differentiated into M2 macrophages and cultured at 37° C. for 2 to 3 days. Thereafter, the mRNA expression level of ITGB2 was confirmed.\nas §1, with “To determine cell viability, a CCK-8 reagent (Enzo Life Sciences) was added in 1/10 of the medium and reacted at 37° C. for 3 hours.” left out, “Devices). […]” for “Devices).”"}, "[4]": {"target": "ITGB2 protein immobilised on the SPR sensor chip (UniProt P05107)", "sequence (P05107 23-700 limits assumed)": "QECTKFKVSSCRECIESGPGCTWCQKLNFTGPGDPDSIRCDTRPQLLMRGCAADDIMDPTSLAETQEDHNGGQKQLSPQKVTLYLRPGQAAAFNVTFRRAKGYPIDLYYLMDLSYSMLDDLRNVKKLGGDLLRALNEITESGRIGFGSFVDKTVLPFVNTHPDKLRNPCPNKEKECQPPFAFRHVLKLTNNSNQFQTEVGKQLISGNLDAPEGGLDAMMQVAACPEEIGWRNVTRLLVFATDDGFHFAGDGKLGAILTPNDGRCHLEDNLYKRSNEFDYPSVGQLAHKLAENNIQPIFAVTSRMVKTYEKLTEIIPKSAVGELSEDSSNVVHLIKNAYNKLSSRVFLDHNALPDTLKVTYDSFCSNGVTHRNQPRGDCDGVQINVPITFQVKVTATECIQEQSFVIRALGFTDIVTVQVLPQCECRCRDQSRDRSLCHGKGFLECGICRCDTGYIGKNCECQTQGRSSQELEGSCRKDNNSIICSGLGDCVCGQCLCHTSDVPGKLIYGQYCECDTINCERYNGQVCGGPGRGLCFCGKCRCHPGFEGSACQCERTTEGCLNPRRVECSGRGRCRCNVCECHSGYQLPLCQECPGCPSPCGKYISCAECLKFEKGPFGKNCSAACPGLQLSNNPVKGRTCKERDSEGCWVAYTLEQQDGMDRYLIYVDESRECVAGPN"}}}
{"compound": "CC[C@H](C)[C@H](NC(=O)CN)C(=O)NCC(=O)N[C@@H](C)C(=O)N[C@H](C(=O)N[C@@H](CC(C)C)C(=O)N[C@@H](CCCCN)C(=O)N[C@H](C(=O)N[C@@H](CC(C)C)C(=O)N[C@H](C(=O)N[C@H](C(=O)NCC(=O)N[C@@H](CC(C)C)C(=O)N1CCC[C@H]1C(=O)N[C@@H](C)C(=O)N[C@@H](CC(C)C)C(=O)N[C@H](C(=O)N[C@@H](CO)C(=O)N[C@@H](Cc1c[nH]c2ccccc12)C(=O)N[C@H](C(=O)N[C@@H](CCCCN)C(=O)N[C@@H](CCCNC(=N)N)C(=O)N[C@@H](CCCCN)C(=O)N[C@@H](CCCNC(=N)N)C(=O)N[C@@H](CCC(N)=O)C(=O)N[C@@H](CCC(N)=O)C(N)=O)[C@@H](C)CC)[C@@H](C)CC)[C@@H](C)O)[C@@H](C)O)C(C)C)C(C)C", "note": "[Melittin]", "values": [{"measurement": "FITC-positive cells", "setting": "[1]", "value": "significantly increased"}]}
{"compound": "GIGAVLKVLTTGLPALISWIKRKRQQ-GGGGS-d[KLAKLAKKLAKLAK] (SEQ ID NO: 5), peptide with linker and drug dKLA attached to melittin [Melittin-dKLA]", "values": [{"measurement": "cell viability", "setting": "[2]", "value": "significantly reduced"}, {"measurement": "cell viability", "setting": "[3]", "value": "the decrease in cell viability by Melittin-dKLA was suppressed"}]}
{"compound": "Melittin-dKLA (peptide)", "values": [{"measurement": "Ka", "setting": "[4]", "value": "1.27e+07", "unit": "M⁻¹"}, {"measurement": "Kd", "setting": "[4]", "value": 78.6, "unit": "nM"}, {"measurement": "koff", "setting": "[4]", "value": 0.00381, "unit": "s⁻¹"}, {"measurement": "kon", "setting": "[4]", "value": 48500, "unit": "M⁻¹ s⁻¹"}]}
